Experimental data reported in publication doi:10.1101/411223 (bioRxiv, 2018).

Tests used:
Test in all cases: ITC
[1] = molecular target: T1, Kap114p (S. cerevisiae, UniProt P53067 1-1004)
T1 sequence (looked up): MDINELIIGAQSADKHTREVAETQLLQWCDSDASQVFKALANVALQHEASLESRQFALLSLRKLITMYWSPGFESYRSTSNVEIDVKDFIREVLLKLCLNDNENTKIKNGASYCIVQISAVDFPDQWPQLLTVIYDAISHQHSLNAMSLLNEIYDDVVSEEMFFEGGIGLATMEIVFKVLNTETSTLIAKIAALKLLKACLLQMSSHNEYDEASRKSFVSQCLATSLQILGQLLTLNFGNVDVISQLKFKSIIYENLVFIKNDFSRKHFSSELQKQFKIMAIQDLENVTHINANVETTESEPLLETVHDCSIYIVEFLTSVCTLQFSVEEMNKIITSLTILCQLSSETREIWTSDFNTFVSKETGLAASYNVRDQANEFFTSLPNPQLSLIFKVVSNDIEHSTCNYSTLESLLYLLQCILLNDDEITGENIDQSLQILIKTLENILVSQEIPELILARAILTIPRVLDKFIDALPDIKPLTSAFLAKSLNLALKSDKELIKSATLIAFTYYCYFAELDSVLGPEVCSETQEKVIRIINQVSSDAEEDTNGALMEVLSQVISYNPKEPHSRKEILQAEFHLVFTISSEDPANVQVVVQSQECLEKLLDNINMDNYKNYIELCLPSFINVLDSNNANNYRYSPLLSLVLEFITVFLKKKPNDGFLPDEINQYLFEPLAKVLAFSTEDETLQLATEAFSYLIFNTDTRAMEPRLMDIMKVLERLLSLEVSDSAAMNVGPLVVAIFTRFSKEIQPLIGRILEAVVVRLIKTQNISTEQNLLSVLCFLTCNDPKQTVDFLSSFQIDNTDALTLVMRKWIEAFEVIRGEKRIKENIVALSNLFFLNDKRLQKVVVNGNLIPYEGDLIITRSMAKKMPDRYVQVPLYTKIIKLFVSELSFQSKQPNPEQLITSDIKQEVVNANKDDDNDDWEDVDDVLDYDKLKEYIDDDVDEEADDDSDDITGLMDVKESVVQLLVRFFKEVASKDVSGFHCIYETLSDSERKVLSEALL

[2] = molecular target: T2, Kap95p (S. cerevisiae, UniProt Q06142 1-861)
T2 sequence (looked up): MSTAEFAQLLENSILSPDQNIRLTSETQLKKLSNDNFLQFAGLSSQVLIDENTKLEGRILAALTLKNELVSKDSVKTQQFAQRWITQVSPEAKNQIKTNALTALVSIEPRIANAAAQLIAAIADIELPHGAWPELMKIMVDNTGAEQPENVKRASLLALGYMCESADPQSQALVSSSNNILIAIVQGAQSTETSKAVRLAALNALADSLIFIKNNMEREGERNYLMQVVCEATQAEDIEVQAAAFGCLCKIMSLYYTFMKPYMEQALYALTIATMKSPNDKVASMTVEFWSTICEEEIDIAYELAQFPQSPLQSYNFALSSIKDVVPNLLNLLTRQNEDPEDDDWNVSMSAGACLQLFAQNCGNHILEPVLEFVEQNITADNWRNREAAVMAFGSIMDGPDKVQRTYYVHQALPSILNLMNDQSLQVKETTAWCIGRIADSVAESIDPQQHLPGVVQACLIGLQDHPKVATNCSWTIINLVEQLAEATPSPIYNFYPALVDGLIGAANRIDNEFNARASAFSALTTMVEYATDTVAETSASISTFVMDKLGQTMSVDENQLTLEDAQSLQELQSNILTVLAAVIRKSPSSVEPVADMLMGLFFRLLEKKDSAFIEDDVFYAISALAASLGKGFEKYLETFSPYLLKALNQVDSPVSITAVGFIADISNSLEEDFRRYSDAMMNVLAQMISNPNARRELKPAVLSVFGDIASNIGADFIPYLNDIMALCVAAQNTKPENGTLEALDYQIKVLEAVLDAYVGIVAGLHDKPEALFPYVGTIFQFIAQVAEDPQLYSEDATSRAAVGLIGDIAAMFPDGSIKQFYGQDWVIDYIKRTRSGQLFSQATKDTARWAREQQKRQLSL

[3] = molecular target: T3, Kap114p (Δ899-956) (S. cerevisiae, UniProt P53067 1-1004, Δ899-956)
T3 sequence (looked up): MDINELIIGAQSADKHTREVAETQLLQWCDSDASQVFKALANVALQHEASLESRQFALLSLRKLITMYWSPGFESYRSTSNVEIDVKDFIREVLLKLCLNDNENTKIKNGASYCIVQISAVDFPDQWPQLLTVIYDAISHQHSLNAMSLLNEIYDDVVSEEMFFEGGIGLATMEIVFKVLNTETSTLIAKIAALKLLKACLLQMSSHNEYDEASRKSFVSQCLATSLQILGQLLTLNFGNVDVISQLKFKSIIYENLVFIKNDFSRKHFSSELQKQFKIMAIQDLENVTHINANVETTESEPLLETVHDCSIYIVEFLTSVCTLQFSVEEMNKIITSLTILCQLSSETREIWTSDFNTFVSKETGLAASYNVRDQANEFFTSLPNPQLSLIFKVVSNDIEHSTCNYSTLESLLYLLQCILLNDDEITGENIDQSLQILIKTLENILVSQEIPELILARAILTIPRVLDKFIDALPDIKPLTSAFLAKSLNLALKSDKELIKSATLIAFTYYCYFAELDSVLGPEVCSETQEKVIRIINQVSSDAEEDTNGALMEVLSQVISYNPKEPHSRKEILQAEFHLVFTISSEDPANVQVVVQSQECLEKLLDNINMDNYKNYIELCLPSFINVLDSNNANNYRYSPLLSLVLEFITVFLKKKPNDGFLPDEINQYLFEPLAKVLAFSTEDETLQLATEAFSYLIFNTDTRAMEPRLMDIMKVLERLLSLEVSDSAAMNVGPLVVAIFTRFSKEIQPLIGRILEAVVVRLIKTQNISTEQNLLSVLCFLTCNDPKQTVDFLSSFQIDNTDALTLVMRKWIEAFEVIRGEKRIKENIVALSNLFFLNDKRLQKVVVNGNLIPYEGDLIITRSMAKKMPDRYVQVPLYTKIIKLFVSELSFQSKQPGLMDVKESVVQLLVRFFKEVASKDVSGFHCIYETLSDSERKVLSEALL

B1: yTBP (61-240) (domain or fragment, S. cerevisiae, UniProt P13393 61-240, looked up)
chain: SGIVPTLQNIVATVTLGCRLDLKTVALHARNAEYNPKRFAAVIMRIREPKTTALIFASGKMVVTGAKSEDDSKLASRKYARIIQKIGFAAKFTDFKIQNIVGSCDVKFPIRLEGLAFSHGTFSSYEPELFPGLIYRMVKPKIVLLIFVSGKIVLTGAKQREEIYQAFEAIYPVLSEFRKM
Question: B1 was tested. Which Kd [1] did it give?
Answer: 0.006 µM

Question: And the Kd [2]?
Answer: ~10 µM

Question: Does B1 bind [3]?
Answer: binds
